T1: human EpCAM on EpCAM positive human carcinoma cells (SW480, SK-OV-3) (human, UniProt P16422 24-314)
T1 sequence (looked up): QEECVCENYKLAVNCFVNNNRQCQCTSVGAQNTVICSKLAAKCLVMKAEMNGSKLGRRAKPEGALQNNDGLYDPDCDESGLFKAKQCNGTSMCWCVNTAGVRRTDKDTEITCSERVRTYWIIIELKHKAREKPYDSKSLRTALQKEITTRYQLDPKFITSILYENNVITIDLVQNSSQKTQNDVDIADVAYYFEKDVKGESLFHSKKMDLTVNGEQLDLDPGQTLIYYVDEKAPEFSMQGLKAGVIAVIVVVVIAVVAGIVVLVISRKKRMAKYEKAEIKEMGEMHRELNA

T2: recombinant human CD3 (rhCD3εδ) (human, UniProt P07766 23-126; P04234 22-105)
T2 chain: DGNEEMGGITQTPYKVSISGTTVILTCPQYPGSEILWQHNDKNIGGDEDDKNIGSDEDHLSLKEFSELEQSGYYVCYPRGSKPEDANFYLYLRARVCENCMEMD

T3: recombinant human EpCAM (rhEpCAM) (human, UniProt P16422 24-265)
T3 construct: Bought recombinant protein coated on the ELISA plate
T3 sequence (looked up): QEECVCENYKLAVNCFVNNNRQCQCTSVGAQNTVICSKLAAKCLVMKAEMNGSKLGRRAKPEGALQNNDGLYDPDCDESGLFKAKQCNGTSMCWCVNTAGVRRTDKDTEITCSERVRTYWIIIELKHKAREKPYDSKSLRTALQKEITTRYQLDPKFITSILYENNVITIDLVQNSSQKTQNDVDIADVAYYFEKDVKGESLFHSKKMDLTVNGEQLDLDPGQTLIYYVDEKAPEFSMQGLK

B1: AC1476 aEpCAM-aCD3-BSRS1-XTEN_AE864-His(6), protease-untreated (intact) anti-EpCAM×anti-CD3 ProTIA (bispecific antibody)
chain: DIQMTQSPSSLSASVGDRVTITCRSTKSLLHSNGITYLYWYQQKPGKAPKLLIYQMSNLASGVPSRFSSSGSGTDFTLTISSLQPEDFATYYCAQNLEIPRTFGQGTKVEIKGATPPETGAETESPGETTGGSAESEPPGEGQVQLVQSGPGLVQPGGSVRISCAASGYTFTNYGMNWVKQAPGKGLEWMGWINTYTGESTYADSFKGRFTFSLDTSASAAYLQINSLRAEDTAVYYCARFAIKGDYWGQGTLLTVSSGGGGSDIQMTQSPSSLSASVGDRVTITCRASQDIRNYLNWYQQKPGKAPKLLIYYTSRLESGVPSRFSGSGSGTDYTLTISSLQPEDFATYYCQQGNTLPWTFGQGTKVEIKGATPPETGAETESPGETTGGSAESEPPGEGEVQLVESGGGLVQPGGSLRLSCAASGYSFTGYTMNWVRQAPGKGLEWVALINPYKGVSTYNQKFKDRFTISVDKSKNTAYLQMNSLRAEDTAVYYCARSGYYGDSDWYFDVWGQGTLVTVSSGTAEAASASGLSGRSDNHSPLGLAGSPGSPAGSPTSTEEGTSESATPESGPGTSTEPSEGSAPGSPAGSPTSTEEGTSTEPSEGSAPGTSTEPSEGSAPGTSESATPESGPGSEPATSGSETPGSEPATSGSETPGSPAGSPTSTEEGTSESATPESGPGTSTEPSEGSAPGTSTEPSEGSAPGSPAGSPTSTEEGTSTEPSEGSAPGTSTEPSEGSAPGTSESATPESGPGTSTEPSEGSAPGTSESATPESGPGSEPATSGSETPGTSTEPSEGSAPGTSTEPSEGSAPGTSESATPESGPGTSESATPESGPGSPAGSPTSTEEGTSESATPESGPGSEPATSGSETPGTSESATPESGPGTSTEPSEGSAPGTSTEPSEGSAPGTSTEPSEGSAPGTSTEPSEGSAPGTSTEPSEGSAPGTSTEPSEGSAPGSPAGSPTSTEEGTSTEPSEGSAPGTSESATPESGPGSEPATSGSETPGTSESATPESGPGSEPATSGSETPGTSESATPESGPGTSTEPSEGSAPGTSESATPESGPGSPAGSPTSTEEGSPAGSPTSTEEGSPAGSPTSTEEGTSESATPESGPGTSTEPSEGSAPGTSESATPESGPGSEPATSGSETPGTSESATPESGPGSEPATSGSETPGTSESATPESGPGTSTEPSEGSAPGSPAGSPTSTEEGTSESATPESGPGSEPATSGSETPGTSESATPESGPGSPAGSPTSTEEGSPAGSPTSTEEGTSTEPSEGSAPGTSESATPESGPGTSESATPESGPGTSESATPESGPGSEPATSGSETPGSEPATSGSETPGSPAGSPTSTEEGTSTEPSEGSAPGTSTEPSEGSAPGSEPATSGSETPGTSESATPESGPGTSTEPSEGSAPGHHHHHH
notes: also called ProTIA-X; protease-untreated anti-EpCAM×anti-CD3 ProTIA
B2: AC1484, non-cleavable anti-EpCAM×anti-CD3 ProTIA (without the release segment cleavage sequence) (bispecific antibody)
chain: DIQMTQSPSSLSASVGDRVTITCRSTKSLLHSNGITYLYWYQQKPGKAPKLLIYQMSNLASGVPSRFSSSGSGTDFTLTISSLQPEDFATYYCAQNLEIPRTFGQGTKVEIKGATPPETGAETESPGETTGGSAESEPPGEGQVQLVQSGPGLVQPGGSVRISCAASGYTFTNYGMNWVKQAPGKGLEWMGWINTYTGESTYADSFKGRFTFSLDTSASAAYLQINSLRAEDTAVYYCARFAIKGDYWGQGTLLTVSSGGGGSDIQMTQSPSSLSASVGDRVTITCRASQDIRNYLNWYQQKPGKAPKLLIYYTSRLESGVPSRFSGSGSGTDYTLTISSLQPEDFATYYCQQGNTLPWTFGQGTKVEIKGATPPETGAETESPGETTGGSAESEPPGEGEVQLVESGGGLVQPGGSLRLSCAASGYSFTGYTMNWVRQAPGKGLEWVALINPYKGVSTYNQKFKDRFTISVDKSKNTAYLQMNSLRAEDTAVYYCARSGYYGDSDWYFDVWGQGTLVTVSSGSPGSPAGSPTSTEEGTSESATPESGPGTSTEPSEGSAPGSPAGSPTSTEEGTSTEPSEGSAPGTSTEPSEGSAPGTSESATPESGPGSEPATSGSETPGSEPATSGSETPGSPAGSPTSTEEGTSESATPESGPGTSTEPSEGSAPGTSTEPSEGSAPGSPAGSPTSTEEGTSTEPSEGSAPGTSTEPSEGSAPGTSESATPESGPGTSTEPSEGSAPGTSESATPESGPGSEPATSGSETPGTSTEPSEGSAPGTSTEPSEGSAPGTSESATPESGPGTSESATPESGPGSPAGSPTSTEEGTSESATPESGPGSEPATSGSETPGTSESATPESGPGTSTEPSEGSAPGTSTEPSEGSAPGTSTEPSEGSAPGTSTEPSEGSAPGTSTEPSEGSAPGTSTEPSEGSAPGSPAGSPTSTEEGTSTEPSEGSAPGTSESATPESGPGSEPATSGSETPGTSESATPESGPGSEPATSGSETPGTSESATPESGPGTSTEPSEGSAPGTSESATPESGPGSPAGSPTSTEEGSPAGSPTSTEEGSPAGSPTSTEEGTSESATPESGPGTSTEPSEGSAPGTSESATPESGPGSEPATSGSETPGTSESATPESGPGSEPATSGSETPGTSESATPESGPGTSTEPSEGSAPGSPAGSPTSTEEGTSESATPESGPGSEPATSGSETPGTSESATPESGPGSPAGSPTSTEEGSPAGSPTSTEEGTSTEPSEGSAPGTSESATPESGPGTSESATPESGPGTSESATPESGPGSEPATSGSETPGSEPATSGSETPGSPAGSPTSTEEGTSTEPSEGSAPGTSTEPSEGSAPGSEPATSGSETPGTSESATPESGPGTSTEPSEGSAPGHHHHHH
notes: also called non-cleavable ProTIA; protease-noncleavable anti-EpCAM×anti-CD3 ProTIA

What was measured:
[1] = molecular target: T1, human EpCAM on EpCAM positive human …; assay: cell-based or functional assay
[2] = molecular target: human CD3 on purified human CD3 positive T cells (human, UniProt P07766 23-207); assay: cell-based or functional assay
[3] = molecular target: T2, recombinant human CD3 (rhCD3εδ); assay: sandwich ELISA: rhCD3εδ coated on plate, detection with peroxidase-conjugated protein L
[4] = molecular target: T3, recombinant human EpCAM (rhEpCAM); assay: sandwich ELISA: rhEpCAM coated on plate, detection with peroxidase-conjugated protein L
Experimental: The binding capability of anti-EpCAM×anti-CD3 ProTIA composition was verified with an EpCAM/peroxidase-conjugated protein-L sandwich ELISA. In the ELISA binding assay, recombinant human EpCAM (rhEpCAM) (Sino BiologicalR&D Systems cat #10694-H08H960-EP-50) was coated on a 96-well, flat-bottomed plate at a concentration of 0.1 microg/100 microL. After overnight incubation at 4° C., the assay plate was washed and blocked with 3% bovine serum albumin (BSA) for 1 h at room temperature. The plate was washed again followed by the introduction of a dose range of non-cleavable anti-EpCAM×anti-CD3 ProTIA (i.e., a ProTIA without the release segment cleavage sequence and AC1484, a ProTIA chimeric polypeptide assembly composition) and protease-treated and protease-untreated anti-EpCAM×anti-CD3 ProTIA (e.g. AC1476). The dose range utilized for non-cleavable and protease-treated and untreated ProTIA was 0.0006 to 5 nM, achieved with a 1:6 fold serial dilution scheme from a starting concentration of 5 nM. The plate was allowed to incubate with shaking for 1 h at room temperature to allow the non-cleavable, protease-cleaved and uncleaved ProTIA to bind to the rhEpCAM coated on the plate. Unbound components were removed with a wash step and a peroxidase-conjugated protein L (PierceThermoFisher Scientific cat #32420) was added. After an appropriate incubation period that allowed protein-L to bind to the kappa light of the scFvs, any unbound reagent was removed by a wash step followed by the addition of tetramethylbenzidine (TMB) substrate to each well. TMB is a chromogenic substrate of peroxidase. After desired color intensity was reached, 0.2 N sulfuric acid was added to stop the reaction and absorbance (OD) was measured at 450 nm using a spectrophotometer. The intensity of the color is proportional to the concentration of non-cleavable, protease-treated and untreated anti-EpCAM×anti-CD3 ProTIA captured by the rhEpCAM/protein-L sandwich ELISA. The intensity of the color produced (measured OD) was plotted against protein concentration; and the concentration of non-cleavable, protease-cleaved and uncleaved anti-EpCAM×anti-CD3 ProTIA that gave half-maximal response (EC₅₀) was derived with a 4-parameter logistic regression equation using GraphPad prism software.

Binder	EC50, LDH release cytotoxicity, PBMC:SK-OV-3 5:1 [1] [nM]	EC50, LDH release cytotoxicity, purified human CD3 positive T cells:OVCAR-3 5:1 [2] [nM]	EC50, LDH release cytotoxicity, purified human CD3 positive T cells:SK-OV-3 5:1 [2] [nM]	EC50 [3] [nM]	fold hindrance of binding by XTEN864, against the cleaved and released anti-CD3scFv portion [3] [fold]	EC50 [4] [nM]	fold hindrance of binding by XTEN864, against protease-treated ProTIA [4] [fold]
B1	0.136	0.0007	0.134	1.8	~5.8	0.28	≥ 2.3
B2	1.79	0.086	2.66	2.2	–	0.32	–
